This note sets out measurements from US20130210709A1 (ANCHOR THERAPEUTICS, published 2013).

* marks the point of attachment. C27H50N3O2SC(O)‑ = not defined here; Palmitoyl = CCCCCCCCCCCCCCCC(=O)*

Experiment [1] has as its target T1, CXCR4 receptor (human, UniProt P61073 1-352). Nature of the experiment: cell-based or functional assay.
Experiment [2] addresses T1, CXCR4 receptor. Nature of the experiment: cell-based or functional assay. This is another data set of the same source.

T1 sequence (P61073 whole entry): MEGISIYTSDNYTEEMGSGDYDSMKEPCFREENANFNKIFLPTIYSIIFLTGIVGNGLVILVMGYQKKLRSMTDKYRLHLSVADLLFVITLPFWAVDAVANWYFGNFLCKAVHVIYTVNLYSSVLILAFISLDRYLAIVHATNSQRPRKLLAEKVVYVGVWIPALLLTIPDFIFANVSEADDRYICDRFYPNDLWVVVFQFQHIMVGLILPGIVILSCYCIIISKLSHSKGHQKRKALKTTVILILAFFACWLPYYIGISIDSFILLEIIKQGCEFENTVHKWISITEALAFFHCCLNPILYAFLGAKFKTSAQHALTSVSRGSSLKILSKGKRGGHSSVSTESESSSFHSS

B1: Compound No. 88 (Pal-SKLSHSKGHQKRKALKTTVIL-amide) (peptide)
peptide: Palmitoyl-SKLSHSKGHQKRKALKTTVIL-NH2
SMILES: CCCCCCCCCCCCCCCC(=O)N[C@@H](CO)C(=O)N[C@@H](CCCCN)C(=O)N[C@@H](CC(C)C)C(=O)N[C@@H](CO)C(=O)N[C@@H](Cc1c[nH]cn1)C(=O)N[C@@H](CO)C(=O)N[C@@H](CCCCN)C(=O)NCC(=O)N[C@@H](Cc1c[nH]cn1)C(=O)N[C@@H](CCC(N)=O)C(=O)N[C@@H](CCCCN)C(=O)N[C@@H](CCCNC(=N)N)C(=O)N[C@@H](CCCCN)C(=O)N[C@@H](C)C(=O)N[C@@H](CC(C)C)C(=O)N[C@@H](CCCCN)C(=O)N[C@H](C(=O)N[C@H](C(=O)N[C@H](C(=O)N[C@H](C(=O)N[C@@H](CC(C)C)C(N)=O)[C@@H](C)CC)C(C)C)[C@@H](C)O)[C@@H](C)O
With B1, in the experiment with CXCR4 receptor [1], the “AUC (% of vehicle), chemotaxis, CEM, 1.0 uM” value (“AUC (% of vehicle), chemotaxis” for short) was 144 % of vehicle; the “Max (% of vehicle), chemotaxis, CEM, 1.0 uM” value (shortened to “Max (% of vehicle), chemotaxis”) was 132 % of vehicle; the “Peak Ratio, chemotaxis, CEM, 0.01 uM” value was 0.04; the “Peak Ratio, chemotaxis, CEM, 0.03 uM” value is 0.04. Besides, in the experiment with CXCR4 receptor [1], the “Peak Ratio, chemotaxis, CEM, 0.1 uM” value worked out at 0.04; the “Peak Ratio, chemotaxis, CEM, 0.3 uM” value turned out to be 0.2; the “Peak Ratio, chemotaxis, CEM, 1.0 uM” value is 1; the “Peak Ratio, chemotaxis, CEM, 3.0 uM” value amounted to 1.

B2: CXCR4 i3 loop compound 94 (peptide)
peptide: Palmitoyl-KLSHSKGHQKRKA-NH2
SMILES: CCCCCCCCCCCCCCCC(=O)N[C@@H](CCCCN)C(=O)N[C@@H](CC(C)C)C(=O)N[C@@H](CO)C(=O)N[C@@H](Cc1c[nH]cn1)C(=O)N[C@@H](CO)C(=O)N[C@@H](CCCCN)C(=O)NCC(=O)N[C@@H](Cc1c[nH]cn1)C(=O)N[C@@H](CCC(N)=O)C(=O)N[C@@H](CCCCN)C(=O)N[C@@H](CCCNC(=N)N)C(=O)N[C@@H](CCCCN)C(=O)N[C@@H](C)C(N)=O
With B2, in the experiment with CXCR4 receptor [1], the “AUC (% of vehicle), chemotaxis” value was 65.3 % of vehicle; the “Max (% of vehicle), chemotaxis” value is 80.5 % of vehicle; the “Peak Ratio, chemotaxis, CEM, 1.0 uM” value was 1.

B3: CXCR4 i1 loop compound 42 (peptide)
peptide: Palmitoyl-KKLRSMTDKYRLHL-NH2
SMILES: CCCCCCCCCCCCCCCC(=O)N[C@@H](CCCCN)C(=O)N[C@@H](CCCCN)C(=O)N[C@@H](CC(C)C)C(=O)N[C@@H](CCCNC(=N)N)C(=O)N[C@@H](CO)C(=O)N[C@@H](CCSC)C(=O)N[C@H](C(=O)N[C@@H](CC(=O)O)C(=O)N[C@@H](CCCCN)C(=O)N[C@@H](Cc1ccc(O)cc1)C(=O)N[C@@H](CCCNC(=N)N)C(=O)N[C@@H](CC(C)C)C(=O)N[C@@H](Cc1c[nH]cn1)C(=O)N[C@@H](CC(C)C)C(N)=O)[C@@H](C)O
For B3, in the experiment with CXCR4 receptor [2], the “AUC (% of), CHTX, SUP B-15, 1.0 uM” value is 43.8%; the “Max (% of), CHTX, SUP B-15, 1.0 uM” value came to 33.5%; the “Peak Ratio, CHTX, CEM, 1.0 uM (row labelled 46, sequence of 42)” value turned out to be 0.01; the “Peak Ratio, CHTX, SUP B-15, 1.0 uM” value amounted to 0.2.

B4: CXCR4 i3 loop compound 96 (peptide)
peptide: Palmitoyl-SHSKGHQKRKALK-NH2
SMILES: CCCCCCCCCCCCCCCC(=O)N[C@@H](CO)C(=O)N[C@@H](Cc1c[nH]cn1)C(=O)N[C@@H](CO)C(=O)N[C@@H](CCCCN)C(=O)NCC(=O)N[C@@H](Cc1c[nH]cn1)C(=O)N[C@@H](CCC(N)=O)C(=O)N[C@@H](CCCCN)C(=O)N[C@@H](CCCNC(=N)N)C(=O)N[C@@H](CCCCN)C(=O)N[C@@H](C)C(=O)N[C@@H](CC(C)C)C(=O)N[C@@H](CCCCN)C(N)=O
On to B4, for which, in the experiment with CXCR4 receptor [1], the “AUC (% of vehicle), chemotaxis” value was 34.2 % of vehicle; the “Max (% of vehicle), chemotaxis” value was 63.1 % of vehicle; the “Peak Ratio, chemotaxis, CEM, 1.0 uM” value worked out at 1.

B5: Compound No. 90 (Pal-KLSHSKGHQKRKALKTTV-amide) (peptide)
peptide: Palmitoyl-KLSHSKGHQKRKALKTTV-NH2
SMILES: CCCCCCCCCCCCCCCC(=O)N[C@@H](CCCCN)C(=O)N[C@@H](CC(C)C)C(=O)N[C@@H](CO)C(=O)N[C@@H](Cc1c[nH]cn1)C(=O)N[C@@H](CO)C(=O)N[C@@H](CCCCN)C(=O)NCC(=O)N[C@@H](Cc1c[nH]cn1)C(=O)N[C@@H](CCC(N)=O)C(=O)N[C@@H](CCCCN)C(=O)N[C@@H](CCCNC(=N)N)C(=O)N[C@@H](CCCCN)C(=O)N[C@@H](C)C(=O)N[C@@H](CC(C)C)C(=O)N[C@@H](CCCCN)C(=O)N[C@H](C(=O)N[C@H](C(=O)N[C@H](C(N)=O)C(C)C)[C@@H](C)O)[C@@H](C)O
For B5, in the experiment with CXCR4 receptor [1], the “Peak Ratio, chemotaxis, CEM, 0.01 uM” value came out at 1; the “Peak Ratio, chemotaxis, CEM, 0.03 uM” value worked out at 1; the “Peak Ratio, chemotaxis, CEM, 0.1 uM” value is 0.2; the “Peak Ratio, chemotaxis, CEM, 0.3 uM” value was determined as 1. In addition, the “Peak Ratio, chemotaxis, CEM, 3.0 uM” value with CXCR4 receptor [1] turned out to be 1.

B6: CXCR4 i1 loop compound 40 (peptide)
peptide: Palmitoyl-YQKKLRSMTDKYRLHLSV-NH2
SMILES: CCCCCCCCCCCCCCCC(=O)N[C@@H](Cc1ccc(O)cc1)C(=O)N[C@@H](CCC(N)=O)C(=O)N[C@@H](CCCCN)C(=O)N[C@@H](CCCCN)C(=O)N[C@@H](CC(C)C)C(=O)N[C@@H](CCCNC(=N)N)C(=O)N[C@@H](CO)C(=O)N[C@@H](CCSC)C(=O)N[C@H](C(=O)N[C@@H](CC(=O)O)C(=O)N[C@@H](CCCCN)C(=O)N[C@@H](Cc1ccc(O)cc1)C(=O)N[C@@H](CCCNC(=N)N)C(=O)N[C@@H](CC(C)C)C(=O)N[C@@H](Cc1c[nH]cn1)C(=O)N[C@@H](CC(C)C)C(=O)N[C@@H](CO)C(=O)N[C@H](C(N)=O)C(C)C)[C@@H](C)O
With B6, in the experiment with CXCR4 receptor [2], the “AUC (% of), CHTX, SUP B-15, 1.0 uM” value came out at 71.9%; the “Max (% of), CHTX, SUP B-15, 1.0 uM” value was 71.2%; the “Peak Ratio, CHTX, SUP B-15, 1.0 uM” value came to 0.2.

B7: CXCR4 i3 loop compound 92 (peptide)
peptide: Palmitoyl-KLSHSKGHQKRKALK-NH2
SMILES: CCCCCCCCCCCCCCCC(=O)N[C@@H](CCCCN)C(=O)N[C@@H](CC(C)C)C(=O)N[C@@H](CO)C(=O)N[C@@H](Cc1c[nH]cn1)C(=O)N[C@@H](CO)C(=O)N[C@@H](CCCCN)C(=O)NCC(=O)N[C@@H](Cc1c[nH]cn1)C(=O)N[C@@H](CCC(N)=O)C(=O)N[C@@H](CCCCN)C(=O)N[C@@H](CCCNC(=N)N)C(=O)N[C@@H](CCCCN)C(=O)N[C@@H](C)C(=O)N[C@@H](CC(C)C)C(=O)N[C@@H](CCCCN)C(N)=O
For the molecule B7, in the experiment with CXCR4 receptor [1], the “Peak Ratio, chemotaxis, CEM, 0.01 uM” value was 0.2; the “Peak Ratio, chemotaxis, CEM, 0.03 uM” value stood at 0.2; the “Peak Ratio, chemotaxis, CEM, 0.1 uM” value was 0.2; the “Peak Ratio, chemotaxis, CEM, 0.3 uM” value amounted to 0.2. Besides, in the experiment with CXCR4 receptor [1], the “Peak Ratio, chemotaxis, CEM, 1.0 uM” value came out at 0.2 and the “Peak Ratio, chemotaxis, CEM, 3.0 uM” value turned out to be 1.

B8: CXCR4 i3 loop compound 95 (peptide)
peptide: Palmitoyl-LSHSKGHQKRKALK-NH2
SMILES: CCCCCCCCCCCCCCCC(=O)N[C@@H](CC(C)C)C(=O)N[C@@H](CO)C(=O)N[C@@H](Cc1c[nH]cn1)C(=O)N[C@@H](CO)C(=O)N[C@@H](CCCCN)C(=O)NCC(=O)N[C@@H](Cc1c[nH]cn1)C(=O)N[C@@H](CCC(N)=O)C(=O)N[C@@H](CCCCN)C(=O)N[C@@H](CCCNC(=N)N)C(=O)N[C@@H](CCCCN)C(=O)N[C@@H](C)C(=O)N[C@@H](CC(C)C)C(=O)N[C@@H](CCCCN)C(N)=O
In the case of B8, in the experiment with CXCR4 receptor [1], the “AUC (% of vehicle), chemotaxis” value was 77.5 % of vehicle; the “Max (% of vehicle), chemotaxis” value was 92.1 % of vehicle; the “Peak Ratio, chemotaxis, CEM, 1.0 uM” value is 1.

B9: CXCR4 i3 loop compound 93 (peptide)
peptide: Palmitoyl-KLSHSKGHQKRKAL-NH2
SMILES: CCCCCCCCCCCCCCCC(=O)N[C@@H](CCCCN)C(=O)N[C@@H](CC(C)C)C(=O)N[C@@H](CO)C(=O)N[C@@H](Cc1c[nH]cn1)C(=O)N[C@@H](CO)C(=O)N[C@@H](CCCCN)C(=O)NCC(=O)N[C@@H](Cc1c[nH]cn1)C(=O)N[C@@H](CCC(N)=O)C(=O)N[C@@H](CCCCN)C(=O)N[C@@H](CCCNC(=N)N)C(=O)N[C@@H](CCCCN)C(=O)N[C@@H](C)C(=O)N[C@@H](CC(C)C)C(N)=O
B9: in the experiment with CXCR4 receptor [1], the “AUC (% of vehicle), chemotaxis” value was 15.9 % of vehicle; the “Max (% of vehicle), chemotaxis” value was 54.8 % of vehicle; the “Peak Ratio, chemotaxis, CEM, 1.0 uM” value turned out to be 0.2.
Taken in the same sequence, the figures for {C27H50N3O2SC(O)‑}-HSKGHQKRKQALK-NH2 (reading uncertain) [CXCR4 i3 loop compound 87] were 52.6 % of vehicle, 76.1 % of vehicle and 0.2.

B10: CXCR4 i1 loop compound 41 (peptide)
peptide: Palmitoyl-KKLRSMTDKYRLHLSV-NH2
SMILES: CCCCCCCCCCCCCCCC(=O)N[C@@H](CCCCN)C(=O)N[C@@H](CCCCN)C(=O)N[C@@H](CC(C)C)C(=O)N[C@@H](CCCNC(=N)N)C(=O)N[C@@H](CO)C(=O)N[C@@H](CCSC)C(=O)N[C@H](C(=O)N[C@@H](CC(=O)O)C(=O)N[C@@H](CCCCN)C(=O)N[C@@H](Cc1ccc(O)cc1)C(=O)N[C@@H](CCCNC(=N)N)C(=O)N[C@@H](CC(C)C)C(=O)N[C@@H](Cc1c[nH]cn1)C(=O)N[C@@H](CC(C)C)C(=O)N[C@@H](CO)C(=O)N[C@H](C(N)=O)C(C)C)[C@@H](C)O
Consider B10, for which, in the experiment with CXCR4 receptor [2], the “AUC (% of), CHTX, CEM, 1.0 uM” value is 66.7%; the “AUC (% of), CHTX, SUP B-15, 1.0 uM” value was 51.7%; the “Max (% of), CHTX, CEM, 1.0 uM” value came to 76.8%; the “Max (% of), CHTX, SUP B-15, 1.0 uM” value was determined as 41.7%. Moreover, in the experiment with CXCR4 receptor [2], the “Peak Ratio, CHTX, CEM, 1.0 uM” value is 0.01 and the “Peak Ratio, CHTX, SUP B-15, 1.0 uM” value amounted to 0.04.

B11: CXCR4 i3 loop compound 89 (peptide)
peptide: Palmitoyl-KLSHSKGHQKRKALKTTVIL-NH2
SMILES: CCCCCCCCCCCCCCCC(=O)N[C@@H](CCCCN)C(=O)N[C@@H](CC(C)C)C(=O)N[C@@H](CO)C(=O)N[C@@H](Cc1c[nH]cn1)C(=O)N[C@@H](CO)C(=O)N[C@@H](CCCCN)C(=O)NCC(=O)N[C@@H](Cc1c[nH]cn1)C(=O)N[C@@H](CCC(N)=O)C(=O)N[C@@H](CCCCN)C(=O)N[C@@H](CCCNC(=N)N)C(=O)N[C@@H](CCCCN)C(=O)N[C@@H](C)C(=O)N[C@@H](CC(C)C)C(=O)N[C@@H](CCCCN)C(=O)N[C@H](C(=O)N[C@H](C(=O)N[C@H](C(=O)N[C@H](C(=O)N[C@@H](CC(C)C)C(N)=O)[C@@H](C)CC)C(C)C)[C@@H](C)O)[C@@H](C)O
For the molecule B11, in the experiment with CXCR4 receptor [1], the “AUC (% of vehicle), chemotaxis” value was 37.5 % of vehicle; the “Max (% of vehicle), chemotaxis” value was 59.7 % of vehicle; the “Peak Ratio, chemotaxis, CEM, 1.0 uM” value was 0.04.
